# How the values were obtained:
# [1] = biological target: human EGFR (huEGFR) over-expressed on mcl-1-/- mouse embryonic fibroblasts (human, UniProt P00533 25-1210); assay: cell-based or functional assay
# [2] = biological target: EGFR on EGFR positive non-small cell lung cancer cells NCI-H1650 (UniProt P00533 25-1210); assay: cell-based or functional assay
Binder,huEGFR+ mcl-1-/- MEF EC50 [1] [nM],H1650 CTG-3D EC50 [2] [µg/mL],H1650 GFP Flourescence EC50 [2] [µg/mL]
"AbA-CZ (antibody, human IgG1, kappa, V domains shown, synthon CZ on reduced interchain cysteines; average DAR 3.2 per ADC) VH: EVQLQESGPGLVKPSQTLSLTCTVSGYSISRDFAWNWIRQPPGKGLEWMGYISYNGNTRYQPSLKSRITISRDTSKNQFFLKLNSVTAADTATYYCVTASRGFPYWGQGTLVTVSS VL: DIQMTQSPSSMSVSVGDRVTITCHSSQDINSNIGWLQQKPGKSFKGLIYHGTNLDDGVPSRFSGSGSGTDYTLTISSLQPEDFATYYCVQYAQFPWTFGGGTKLEIKR",0.3,0.88,1.24
"AbA-YY (antibody, human IgG1, kappa, V domains shown, synthon YY on reduced interchain cysteines; average DAR 2.2 per ADC) VH: EVQLQESGPGLVKPSQTLSLTCTVSGYSISRDFAWNWIRQPPGKGLEWMGYISYNGNTRYQPSLKSRITISRDTSKNQFFLKLNSVTAADTATYYCVTASRGFPYWGQGTLVTVSS VL: DIQMTQSPSSMSVSVGDRVTITCHSSQDINSNIGWLQQKPGKSFKGLIYHGTNLDDGVPSRFSGSGSGTDYTLTISSLQPEDFATYYCVQYAQFPWTFGGGTKLEIKR",460,> 40,7.85
"AbA-XW (antibody, human IgG1, kappa, V domains shown, synthon XW on reduced interchain cysteines; average DAR 3.7 per ADC) VH: EVQLQESGPGLVKPSQTLSLTCTVSGYSISRDFAWNWIRQPPGKGLEWMGYISYNGNTRYQPSLKSRITISRDTSKNQFFLKLNSVTAADTATYYCVTASRGFPYWGQGTLVTVSS VL: DIQMTQSPSSMSVSVGDRVTITCHSSQDINSNIGWLQQKPGKSFKGLIYHGTNLDDGVPSRFSGSGSGTDYTLTISSLQPEDFATYYCVQYAQFPWTFGGGTKLEIKR",32,> 40,> 40
"AbA-SE (antibody, human IgG1, kappa, V domains shown, synthon SE on reduced interchain cysteines; average DAR 2.8 per ADC) VH: EVQLQESGPGLVKPSQTLSLTCTVSGYSISRDFAWNWIRQPPGKGLEWMGYISYNGNTRYQPSLKSRITISRDTSKNQFFLKLNSVTAADTATYYCVTASRGFPYWGQGTLVTVSS VL: DIQMTQSPSSMSVSVGDRVTITCHSSQDINSNIGWLQQKPGKSFKGLIYHGTNLDDGVPSRFSGSGSGTDYTLTISSLQPEDFATYYCVQYAQFPWTFGGGTKLEIKR",105,4,4.23
"AbA-SR (antibody, human IgG1, kappa, V domains shown, synthon SR on reduced interchain cysteines; average DAR 2.3 per ADC) VH: EVQLQESGPGLVKPSQTLSLTCTVSGYSISRDFAWNWIRQPPGKGLEWMGYISYNGNTRYQPSLKSRITISRDTSKNQFFLKLNSVTAADTATYYCVTASRGFPYWGQGTLVTVSS VL: DIQMTQSPSSMSVSVGDRVTITCHSSQDINSNIGWLQQKPGKSFKGLIYHGTNLDDGVPSRFSGSGSGTDYTLTISSLQPEDFATYYCVQYAQFPWTFGGGTKLEIKR",5.9,2.12,2.22
"AbA-YG (antibody, human IgG1, kappa, V domains shown, synthon YG on reduced interchain cysteines; average DAR 1.9 per ADC) VH: EVQLQESGPGLVKPSQTLSLTCTVSGYSISRDFAWNWIRQPPGKGLEWMGYISYNGNTRYQPSLKSRITISRDTSKNQFFLKLNSVTAADTATYYCVTASRGFPYWGQGTLVTVSS VL: DIQMTQSPSSMSVSVGDRVTITCHSSQDINSNIGWLQQKPGKSFKGLIYHGTNLDDGVPSRFSGSGSGTDYTLTISSLQPEDFATYYCVQYAQFPWTFGGGTKLEIKR",6.4,3.8,2.84
"AbA-KZ (antibody, human IgG1, kappa, V domains shown, synthon KZ on reduced interchain cysteines; average DAR 2 per ADC) VH: EVQLQESGPGLVKPSQTLSLTCTVSGYSISRDFAWNWIRQPPGKGLEWMGYISYNGNTRYQPSLKSRITISRDTSKNQFFLKLNSVTAADTATYYCVTASRGFPYWGQGTLVTVSS VL: DIQMTQSPSSMSVSVGDRVTITCHSSQDINSNIGWLQQKPGKSFKGLIYHGTNLDDGVPSRFSGSGSGTDYTLTISSLQPEDFATYYCVQYAQFPWTFGGGTKLEIKR",152,> 40,29.3
"AbB-ZT (antibody, human IgG1, kappa, V domains shown, synthon ZT on reduced interchain cysteines; average DAR 1.4 per ADC) VH: EVQLQESGPGLVKPSQTLSLTCTVSGYSISNDFAWNWIRQPPGKGLEWMGYISYKGNTRYQPSLKSRITISRDTSKNQFFLKLNSVTAADTATYYCVTASRGFPWWGQGTLVTVSS VL: DIQMTQSPSSMSVSVGDRVTITCHSSQDINSNIGWLQQKPGKSFKGLIYHGTNLDDGVPSRFSGSGSGTDYTLTISSLQPEDFATYYCVQYAQFPWTFGGGTKLEIKR",8.9,0.26,0.64
"AbB-ZZ (antibody, human IgG1, kappa, V domains shown, synthon ZZ on reduced interchain cysteines; average DAR 1.1 per ADC) VH: EVQLQESGPGLVKPSQTLSLTCTVSGYSISNDFAWNWIRQPPGKGLEWMGYISYKGNTRYQPSLKSRITISRDTSKNQFFLKLNSVTAADTATYYCVTASRGFPWWGQGTLVTVSS VL: DIQMTQSPSSMSVSVGDRVTITCHSSQDINSNIGWLQQKPGKSFKGLIYHGTNLDDGVPSRFSGSGSGTDYTLTISSLQPEDFATYYCVQYAQFPWTFGGGTKLEIKR",7.4,0.52,0.61
"AbB-XW (antibody, human IgG1, kappa, V domains shown, synthon XW on reduced interchain cysteines; average DAR 3.2 per ADC) VH: EVQLQESGPGLVKPSQTLSLTCTVSGYSISNDFAWNWIRQPPGKGLEWMGYISYKGNTRYQPSLKSRITISRDTSKNQFFLKLNSVTAADTATYYCVTASRGFPWWGQGTLVTVSS VL: DIQMTQSPSSMSVSVGDRVTITCHSSQDINSNIGWLQQKPGKSFKGLIYHGTNLDDGVPSRFSGSGSGTDYTLTISSLQPEDFATYYCVQYAQFPWTFGGGTKLEIKR",0.65,6.92,12.1
"AbB-SE (antibody, human IgG1, kappa, V domains shown, synthon SE on reduced interchain cysteines; average DAR 2.2 per ADC) VH: EVQLQESGPGLVKPSQTLSLTCTVSGYSISNDFAWNWIRQPPGKGLEWMGYISYKGNTRYQPSLKSRITISRDTSKNQFFLKLNSVTAADTATYYCVTASRGFPWWGQGTLVTVSS VL: DIQMTQSPSSMSVSVGDRVTITCHSSQDINSNIGWLQQKPGKSFKGLIYHGTNLDDGVPSRFSGSGSGTDYTLTISSLQPEDFATYYCVQYAQFPWTFGGGTKLEIKR",39,0.59,2.18
"AbB-SR (antibody, human IgG1, kappa, V domains shown, synthon SR on reduced interchain cysteines; average DAR 2.1 per ADC) VH: EVQLQESGPGLVKPSQTLSLTCTVSGYSISNDFAWNWIRQPPGKGLEWMGYISYKGNTRYQPSLKSRITISRDTSKNQFFLKLNSVTAADTATYYCVTASRGFPWWGQGTLVTVSS VL: DIQMTQSPSSMSVSVGDRVTITCHSSQDINSNIGWLQQKPGKSFKGLIYHGTNLDDGVPSRFSGSGSGTDYTLTISSLQPEDFATYYCVQYAQFPWTFGGGTKLEIKR",7,0.62,2.1
"AbA-AAA (antibody, human IgG1, kappa, V domains shown, synthon AAA on reduced interchain cysteines; average DAR 2 per ADC) VH: EVQLQESGPGLVKPSQTLSLTCTVSGYSISRDFAWNWIRQPPGKGLEWMGYISYNGNTRYQPSLKSRITISRDTSKNQFFLKLNSVTAADTATYYCVTASRGFPYWGQGTLVTVSS VL: DIQMTQSPSSMSVSVGDRVTITCHSSQDINSNIGWLQQKPGKSFKGLIYHGTNLDDGVPSRFSGSGSGTDYTLTISSLQPEDFATYYCVQYAQFPWTFGGGTKLEIKR",220,0.65,0.98
"AbB-YG (antibody, human IgG1, kappa, V domains shown, synthon YG on reduced interchain cysteines; average DAR 1.1 per ADC) VH: EVQLQESGPGLVKPSQTLSLTCTVSGYSISNDFAWNWIRQPPGKGLEWMGYISYKGNTRYQPSLKSRITISRDTSKNQFFLKLNSVTAADTATYYCVTASRGFPWWGQGTLVTVSS VL: DIQMTQSPSSMSVSVGDRVTITCHSSQDINSNIGWLQQKPGKSFKGLIYHGTNLDDGVPSRFSGSGSGTDYTLTISSLQPEDFATYYCVQYAQFPWTFGGGTKLEIKR",3.3,3.28,1.55
"AbB-KZ (antibody, human IgG1, kappa, V domains shown, synthon KZ on reduced interchain cysteines; average DAR 1.9 per ADC) VH: EVQLQESGPGLVKPSQTLSLTCTVSGYSISNDFAWNWIRQPPGKGLEWMGYISYKGNTRYQPSLKSRITISRDTSKNQFFLKLNSVTAADTATYYCVTASRGFPWWGQGTLVTVSS VL: DIQMTQSPSSMSVSVGDRVTITCHSSQDINSNIGWLQQKPGKSFKGLIYHGTNLDDGVPSRFSGSGSGTDYTLTISSLQPEDFATYYCVQYAQFPWTFGGGTKLEIKR",55,16.5,37.7
"AbG-ZT (antibody, human IgG1, kappa, V domains shown, synthon ZT on reduced interchain cysteines; average DAR 1.6 per ADC) VH: EVQLQESGPGLVKPSQTLSLTCTVSGYSISNDFAWNWIRQLPGKGLEWMGYISYKGNTRYQPSLKSRITISRDTSKNQFFLKLNSVTAADTATYYCVTASRGLPYWGQGTLVTVSS VL: DIQMTQSPSSMSVSVGDRVTITCHSSQDITYNIGWLQQKPGKSFKGLIYHGANLDDGVPSRFSGSGSGTDYTLTISSLQPEDFATYYCVQYDEFPWTFGGGTKLEIKR",33,0.1,0.08
"AbG-ZZ (antibody, human IgG1, kappa, V domains shown, synthon ZZ on reduced interchain cysteines; average DAR 1.4 per ADC) VH: EVQLQESGPGLVKPSQTLSLTCTVSGYSISNDFAWNWIRQLPGKGLEWMGYISYKGNTRYQPSLKSRITISRDTSKNQFFLKLNSVTAADTATYYCVTASRGLPYWGQGTLVTVSS VL: DIQMTQSPSSMSVSVGDRVTITCHSSQDITYNIGWLQQKPGKSFKGLIYHGANLDDGVPSRFSGSGSGTDYTLTISSLQPEDFATYYCVQYDEFPWTFGGGTKLEIKR",68,0.47,0.44
"AbG-XW (antibody, human IgG1, kappa, V domains shown, synthon XW on reduced interchain cysteines; average DAR 3.7 per ADC) VH: EVQLQESGPGLVKPSQTLSLTCTVSGYSISNDFAWNWIRQLPGKGLEWMGYISYKGNTRYQPSLKSRITISRDTSKNQFFLKLNSVTAADTATYYCVTASRGLPYWGQGTLVTVSS VL: DIQMTQSPSSMSVSVGDRVTITCHSSQDITYNIGWLQQKPGKSFKGLIYHGANLDDGVPSRFSGSGSGTDYTLTISSLQPEDFATYYCVQYDEFPWTFGGGTKLEIKR",19,> 40,> 40
"AbG-SE (antibody, human IgG1, kappa, V domains shown, synthon SE on reduced interchain cysteines; average DAR 3.8 per ADC) VH: EVQLQESGPGLVKPSQTLSLTCTVSGYSISNDFAWNWIRQLPGKGLEWMGYISYKGNTRYQPSLKSRITISRDTSKNQFFLKLNSVTAADTATYYCVTASRGLPYWGQGTLVTVSS VL: DIQMTQSPSSMSVSVGDRVTITCHSSQDITYNIGWLQQKPGKSFKGLIYHGANLDDGVPSRFSGSGSGTDYTLTISSLQPEDFATYYCVQYDEFPWTFGGGTKLEIKR",24,0.96,0.99

# Source: US20240199745A1, “ANTI-EGFR ANTIBODY DRUG CONJUGATES” (priority 2016, published 2024)
